For one substance, Kd results are on record in US20120237442A1.

pKd: −log10 of the molar value.

For this assay, the target named is CH1-AD1-Fab-h679. Briefly: equilibrium gel filtration analysis of the binary complex (DDD1 dimer docking to AD1); complex also seen by SE-HPLC.
Chain of CH1-AD1-Fab-h679 (heavy, as listed by the source): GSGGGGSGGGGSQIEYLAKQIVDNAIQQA

Consider CH1-DDD1-Fab-hMN-14, for which the pKd (usually −log10 of the Kd, conventionally taken in molar units) is 8.10.
